Reference: publication PMC4765350

Tests used:
[1] = target: BtuC2D2 (E. coli vitamin B12 ABC transporter, core transporter: ATPase + permease) (E. coli) (UniProt P06609)
[2] = target: BtuC2D2 (E. coli vitamin B12 ABC transporter, core transporter: ATPase + permease) (E. coli) (UniProt P06609); experiment: SPR; fresh (naive) His-BtuC2D2 (1500-2000 RU) immobilised on a Ni-NTA chip, apo FLAG-BtuF injected at 0.1-2 uM; Biacore T200, 25 °C, 50 mM Tris-HCl pH 7.5, 150 mM NaCl, 0.1% LDAO, 15 uL/min
[3] = target: BtuC2D2 (E. coli vitamin B12 ABC transporter, core transporter: ATPase + permease) (E. coli) (UniProt P06609); experiment: SPR; His-BtuC2D2 that had worked (100 uM ATP, 1 mM MgCl2) for 7 hours, nucleotides removed, immobilised on a Ni-NTA chip; apo FLAG-BtuF injected at 0.1-2 uM; 25 °C, 50 mM Tris-HCl pH 7.5, 150 mM NaCl, 0.1% LDAO

UniProt P06609, sequence (P06609 whole entry, chain 1 of 2): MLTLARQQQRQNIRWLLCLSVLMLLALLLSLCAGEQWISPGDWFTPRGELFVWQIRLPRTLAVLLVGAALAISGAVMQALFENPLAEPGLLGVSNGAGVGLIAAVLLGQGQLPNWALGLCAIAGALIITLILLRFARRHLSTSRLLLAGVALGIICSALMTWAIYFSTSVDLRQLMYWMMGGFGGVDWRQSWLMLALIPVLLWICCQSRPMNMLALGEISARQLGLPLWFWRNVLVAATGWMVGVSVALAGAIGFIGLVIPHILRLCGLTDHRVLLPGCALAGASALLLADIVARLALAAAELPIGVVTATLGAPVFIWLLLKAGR
UniProt P06609, sequence (P06611 whole entry, chain 2 of 2, further chain): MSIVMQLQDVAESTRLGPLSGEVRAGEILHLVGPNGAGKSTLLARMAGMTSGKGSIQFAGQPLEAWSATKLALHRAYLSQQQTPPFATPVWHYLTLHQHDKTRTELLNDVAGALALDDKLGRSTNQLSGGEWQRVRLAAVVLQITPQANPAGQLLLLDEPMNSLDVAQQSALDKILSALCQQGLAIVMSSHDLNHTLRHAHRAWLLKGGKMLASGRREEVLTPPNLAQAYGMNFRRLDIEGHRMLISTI

uptake rate of 57Co vitamin B12 into proteoliposomes, BtuC2D2 that had worked 7 hours against its fresh precursor [1]: 60% | Kd [2]: 0.036 nM | koff [2]: 1.2e-05 s⁻¹ | kon [2]: 280000 M⁻¹ s⁻¹ | Kd [3]: 0.037 nM | improvement of BtuF binding of worked over fresh BtuC2D2 [3]: 35 to 60% | koff [3]: 1.1e-05 s⁻¹ | kon [3]: 290000 M⁻¹ s⁻¹
B1: BtuF, substrate binding protein (SBP) of the vitamin B12 transport system, FLAG-tagged (natural protein)
chain: APRVITLSPANTELAFAAGITPVGVSSYSDYPPQAQKIEQVSTWQGMNLERIVALKPDLVIAWRGGNAERQVDQLASLGIKVMWVDATSIEQIANALRQLAPWSPQPDKAEQAAQSLLDQYAQLKAQYADKPKKRVFLQFGINPPFTSGKESIQNQVLEVCGGENIFKDSRVPWPQVSREQVLARSPQAIVITGGPDQIPKIKQYWGEQLKIPVIPLTSDWFERASPRIILAAQQLCNALSQVD
